Experimental data as given in IntAct's records for PubMed 31749804.

B1: Complement C1r subcomponent (Homo sapiens), P00736 (parent)
chain: MWLLYLLVPALFCRAGGSIPIPQKLFGEVTSPLFPKPYPNNFETTTVITVPTGYRVKLVFQQFDLEPSEGCFYDYVKISADKKSLGRFCGQLGSPLGNPPGKKEFMSQGNKMLLTFHTDFSNEENGTIMFYKGFLAYYQAVDLDECASRSKSGEEDPQPQCQHLCHNYVGGYFCSCRPGYELQEDTHSCQAECSSELYTEASGYISSLEYPRSYPPDLRCNYSIRVERGLTLHLKFLEPFDIDDHQQVHCPYDQLQIYANGKNIGEFCGKQRPPDLDTSSNAVDLLFFTDESGDSRGWKLRYTTEIIKCPQPKTLDEFTIIQNLQPQYQFRDYFIATCKQGYQLIEGNQVLHSFTAVCQDDGTWHRAMPRCKIKDCGQPRNLPNGDFRYTTTMGVNTYKARIQYYCHEPYYKMQTRAGSRESEQGVYTCTAQGIWKNEQKGEKIPRCLPVCGKPVNPVEQRQRIIGGQKAKMGNFPWQVFTNIHGRGGGALLGDRWILTAAHTLYPKEHEAQSNASLDVFLGHTNVEELMKLGNHPIRRVSVHPDYRQDESYNFEGDIALLELENSVTLGPNLLPICLPDNDTFYDLGLMGYVSGFGVMEEKIAHDLRFVRLPVANPQACENWLRGKNRMDVFSQNMFCAGHPSLKQDACQGDSGGVFAVRDPNTDRWVATGIVSWGIGCSRGYGFYTKVLNYVDWIKKEMEEED
partner: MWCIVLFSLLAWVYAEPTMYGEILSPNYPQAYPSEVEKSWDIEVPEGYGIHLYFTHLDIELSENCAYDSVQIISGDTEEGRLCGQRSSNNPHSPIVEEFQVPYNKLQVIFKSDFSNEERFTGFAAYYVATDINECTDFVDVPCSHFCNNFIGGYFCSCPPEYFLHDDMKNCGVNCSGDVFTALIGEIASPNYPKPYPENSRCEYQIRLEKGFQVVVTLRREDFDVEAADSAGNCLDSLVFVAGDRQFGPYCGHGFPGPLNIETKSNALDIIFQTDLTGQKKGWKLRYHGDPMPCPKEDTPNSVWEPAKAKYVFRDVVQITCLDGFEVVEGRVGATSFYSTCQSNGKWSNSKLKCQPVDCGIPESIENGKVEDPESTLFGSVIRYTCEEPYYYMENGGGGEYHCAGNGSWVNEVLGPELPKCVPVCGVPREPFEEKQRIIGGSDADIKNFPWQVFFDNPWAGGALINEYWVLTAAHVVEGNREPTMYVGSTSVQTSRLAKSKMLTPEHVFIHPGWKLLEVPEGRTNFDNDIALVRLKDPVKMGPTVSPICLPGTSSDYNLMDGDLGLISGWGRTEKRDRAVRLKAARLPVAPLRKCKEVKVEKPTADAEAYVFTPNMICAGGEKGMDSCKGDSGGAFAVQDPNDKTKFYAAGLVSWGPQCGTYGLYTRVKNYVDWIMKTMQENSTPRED

Variants of: B1
Settings: with c1s_human C1S

| effect of a mutation on the interaction | Variant |
| --- | --- |
| with no effect | D290G |
